Columns and labels:
Assay in all cases: cell-based or functional assay
Design in all cases: unit not given beside the values
[1] = molecular target: HIV-1 Env of virus MW965.26.SG3 (Clade C) (HIV-1 strain MW965.26)
[2] = molecular target: HIV-1 Env of virus 25925-2.22.SG3 (Clade C) (HIV-1 strain 25925-2.22)
[3] = molecular target: HIV-1 Env of virus CNE58.SG3 (Clade C) (HIV-1 strain CNE58)
[4] = molecular target: HIV-1 Env of virus 001428-2.42.SG3 (Clade C) (HIV-1 strain 001428-2.42)
[5] = molecular target: HIV-1 Env of virus HxB2.DG.SG3 (Clade B) (HIV-1 strain HxB2)
[6] = molecular target: HIV-1 Env of virus 3301.V1.C24.SG3 (Clade AC) (HIV-1 strain 3301.V1.C24)
[7] = molecular target: HIV-1 Env of virus 242-14.SG3 (Clade AG) (HIV-1 strain 242-14)
[8] = molecular target: HIV-1 Env of virus DJ263.8.SG3 (Clade AG) (HIV-1 strain DJ263.8)
[9] = molecular target: HIV-1 Env of virus ZM106.9.SG3 (Clade C) (HIV-1 strain ZM106.9)
[10] = molecular target: HIV-1 Env of virus BG505.W6M.C2.T332N.SG3 (Clade A) (HIV-1 strain BG505)

VRC01 (antibody) was tested, and the ID50 (virus neutralization, ctrl mAb; run with wk 6 sera) [1] was 0.025, the ID50 (virus neutralization, ctrl mAb; run with wk 18 sera) [1] was 0.041 and the ID50 (virus neutralization, ctrl mAb; run with wk 6 sera) [2] was 2.91. For the same substance, the ID50 (virus neutralization, ctrl mAb; run with wk 18 sera) [2] was 1.07, the ID50 (virus neutralization, ctrl mAb; run with wk 6 sera) [3] was 0.398 and the ID50 (virus neutralization, ctrl mAb; run with wk 18 sera) [3] was 0.435. The ID50 (virus neutralization, ctrl mAb; run with wk 6 sera) [4] was < 0.05, the ID50 (virus neutralization, ctrl mAb; run with wk 18 sera) [4] was < 0.05 and the ID50 (virus neutralization, ctrl mAb; run with wk 6 sera) [5] was 0.07. The ID50 (virus neutralization, ctrl mAb; run with wk 18 sera) [5] was < 0.05, the ID50 (virus neutralization, ctrl mAb; run with wk 6 sera) [6] was 0.305 and the ID50 (virus neutralization, ctrl mAb; run with wk 18 sera) [6] was 0.358. For the same substance, the ID50 (virus neutralization, ctrl mAb; run with wk 6 sera) [7] was > 50, the ID50 (virus neutralization, ctrl mAb; run with wk 18 sera) [7] was > 50 and the ID50 (virus neutralization, ctrl mAb; run with wk 6 sera) [8] was 0.095. The ID50 (virus neutralization, ctrl mAb; run with wk 18 sera) [8] was 0.127, the ID50 (virus neutralization, ctrl mAb; run with wk 6 sera) [9] was 0.472 and the ID50 (virus neutralization, ctrl mAb; run with wk 18 sera) [9] was 0.486. For the same substance, the ID50 (virus neutralization, ctrl mAb; run with wk 6 sera) [10] was 0.097 and the ID50 (virus neutralization, ctrl mAb; run with wk 18 sera) [10] was 0.068.
